Article PMC12691694, “Bacillus velezensis LoaP promotes antitermination by antagonizing NusA”

T1: NusA (Bacillus velezensis, UniProt A7Z4T1 1-373)
T1 sequence: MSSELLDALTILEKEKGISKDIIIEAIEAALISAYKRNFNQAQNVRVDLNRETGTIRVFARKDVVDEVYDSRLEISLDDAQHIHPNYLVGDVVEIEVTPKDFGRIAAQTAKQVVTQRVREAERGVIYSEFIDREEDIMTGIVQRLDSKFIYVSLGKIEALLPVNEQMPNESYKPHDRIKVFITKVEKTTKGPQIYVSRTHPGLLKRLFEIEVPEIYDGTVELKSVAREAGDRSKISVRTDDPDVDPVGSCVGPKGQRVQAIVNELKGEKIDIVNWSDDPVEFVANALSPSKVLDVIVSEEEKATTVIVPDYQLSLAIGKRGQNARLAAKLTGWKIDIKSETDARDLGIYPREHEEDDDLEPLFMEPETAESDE

B1: dfnA terminator (structured_RNA)
RNA: GGAAACACAAUGCGUUUGCGAUUUUUAAACCUGUGCUGAAUCGCAAACGCGUUUGUG
B2: dfnA* mutant terminator (dfnA mut) (structured_RNA)
RNA: GGAAACACAGUUUGCGAUUUUUAAACCUGUGCUGAAUCGCAAACUGUG

Target: T1, NusA
Test: DRaCALA filter binding; 50 mM NaH2PO4 pH 7.2, 100 mM NaCl, 0.1 mM EDTA, 1 mM MgCl2, 100 ug/mL BSA, 25 ug/mL total yeast RNA, 2.5 nM labeled RNA, 45 min, room temperature
Conditions: protein: recombinant; tags: N-terminal His10-SUMO removed by bdSENP1; label: 5'-32P; hairpin

Row | Binder | binding result
1 | B1 | binds
2 | B2 | binds
